The values that follow come from article PMC6158211.

The chains are these.
B1: 3xFlag-UBL3 (wild-type ubiquitin-like 3/membrane-anchored Ub-fold protein) [not stated] / ATXN10 [human (endogenous in MDA-MB-231)] (parent)
chain 1: MSSNVPADMINLRLILVSGKTKEFLFSPNDSASDIAKHVYDNWPMDWEEEQVSSPNILRLIYQGRFLHGNVTLGALKLPFGKTTVMHLVARETLPEPNSQGQRNREKTGESNCCVIL
chain 2: MAAPRPPPARLSGVMVPAPIQDLEALRALTALFKEQRNRETAPRTIFQRVLDILKKSSHAVELACRDPSQVENLASSLQLITECFRCLRNACIECSVNQNSIRNLDTIGVAVDLILLFRELRVEQESLLTAFRCGLQFLGNIASRNEDSQSIVWVHAFPELFLSCLNHPDKKIVAYSSMILFTSLNHERMKELEENLNIAIDVIDAYQKHPESEWPFLIITDLFLKSPELVQAMFPKLNNQERVTLLDLMIAKITSDEPLTKDDIPVFLRHAELIASTFVDQCKTVLKLASEEPPDDEEALATIRLLDVLCEMTVNTELLGYLQVFPGLLERVIDLLRVIHVAGKETTNIFSNCGCVRAEGDISNVANGFKSHLIRLIGNLCYKNKDNQDKVNELDGIPLILDNCNISDSNPFLTQWVIYAIRNLTEDNSQNQDLIAKMEEQGLADASLLKKVGFEVEKKGEKLILKSTRDTPKP
B2: 3xFlag-UBL3 (wild-type ubiquitin-like 3/membrane-anchored Ub-fold protein) [not stated] / TUBB4A [human (endogenous in MDA-MB-231)] (parent)
chain 1: B1 chain 1
chain 2: MREIVHLQAGQCGNQIGAKFWEVISDEHGIDPTGTYHGDSDLQLERINVYYNEATGGNYVPRAVLVDLEPGTMDSVRSGPFGQIFRPDNFVFGQSGAGNNWAKGHYTEGAELVDAVLDVVRKEAESCDCLQGFQLTHSLGGGTGSGMGTLLISKIREEFPDRIMNTFSVVPSPKVSDTVVEPYNATLSVHQLVENTDETYCIDNEALYDICFRTLKLTTPTYGDLNHLVSATMSGVTTCLRFPGQLNADLRKLAVNMVPFPRLHFFMPGFAPLTSRGSQQYRALTVPELTQQMFDAKNMMAACDPRHGRYLTVAAVFRGRMSMKEVDEQMLSVQSKNSSYFVEWIPNNVKTAVCDIPPRGLKMAATFIGNSTAIQELFKRISEQFTAMFRRKAFLHWYTGEGMDEMEFTEAESNMNDLVSEYQQYQDATAEEGEFEEEAEEEVA

In the first experiment the parent is B1. The experiment can be described thus: Flag antibody-bead pull-down, on-bead digestion, LC-MS/MS label-free quantification. As to conditions: with ATXN10 [human (endogenous in MDA-MB-231)]; lysates of MDA-MB-231 cells; triplicate pull-downs; read off a plot.
On to chain 1 C113A C114A, for which the screen value stood at 5.1 log2.

The variants in a further experiment derive from B2. The description is as above. The conditions noted are these: with TUBB4A [human (endogenous in MDA-MB-231)]; lysates of MDA-MB-231 cells; triplicate pull-downs; read off a plot.
In the case of chain 1 C113A C114A, the screen value came to 3.2 log2.
